One molecule from PMC2879707 (2011) can be followed below.

For this test, the target named is F-actin (skeletal muscle actin) (Oryctolagus cuniculus, UniProt P68135). Description: high-speed co-sedimentation.

B1: TRIOBP-4 isoform 4 (protein)
chain: MSMEQDTRALLPTQGTAWATASAPVARLQGPQGDSHQACSQEPHSPSSAEAPYCDLPRCPPALQNPLRTTTCVGQSVHSLGLGLGQEPQRVWSPTTALPAEGPAAAPKNRHQDSEGIPYLEGLARSSCTDDNDNKDEDEDPNSNTSSSQDSNTPHDTSNSSSVDWDTTERPGVVPSRNRLTEMIPRRPQEGLRADSARKATRSPARGDTAGQRKENSGSGGQSAGQHWAKLRSESGYFSLERQRSGQTQASSGTPPSGPRGTTQASSAQRDVFQAAPAQEAPQTSSLPRNTQRDTQRSTPRTSSPSRVSQRDTPRVMSTQRKNTPLSSPLRATPETLKISAPEDGTHVTPSPCVQDSSLNRTSQRDSSRTPCIQWDNPRASSPNRTTQRDNPRTPCTQRDNPRASSPNRTTQRDNPRTPCTQRDNPRASSPNRTTQRDNPRTPCAQRDNPRAASPNRSTQRDSPRTPCAQRDNPRASSPNRTAQRDNPRTPCAQRDNPRTSCTSQNTPRTPSTQADKTTASCSKWEHLRSACTQRDNPRTFSQGCTQKDNPGPPSPRRATQGSNSRNPSPHRTNKDIPWASFPLRPTQSDSPRTSSPSRTKQNQVPWASISLRPTQGDKPQTSAPTRLAHNDPPQQYSPSLATTSSSSHNPGHSSASRTSSPLHAAPRGAPQTSLESSQPPCTVCIGHRDAPRASSPPRYFQYDPFPFFPDPRSSESESPHHEPPYMPPAVCIGHRDAPRATSPPRHTQFDPFPFLPDTSDADNESPQHDPPQFPPPVCIGYRDAPRASSPPRQFPEPSFFQDLPRASTESLVPSTDSMHEPPHIPTPVCIGHRDAPSFSSPPRQAPEPSLFFQDPPGTSMESLAPSIDSLHGCPLLPPQVCIGHRDAPRASSPPRHPPSDIGLLAPSPPPGSSGSRGSAPPGETRHNLEREEYTMLADLPPPRRLAQRGPEPQAQGSNEGRTRSPGRAEVERLFGQERRKSEAPGAFQTRDEGRSQRPSQAQSQLRRQSSPAP
modifications: N-terminal GFP and C-terminal FLAG fusion on TRIOBP-4, filamentous actin
Broadly, the Kd is the constant that tells how readily two partners part at equilibrium. Molecule B1 had a Kd of 940 nM.
